# From the supplement of paper PMC7877785
# ± gives the uncertainty stated by the source.
# Assay: self-splicing fitness, log relative to wild type (ln ratio); higher = more splicing; Tetrahymena group I intron in knt gene, E. coli kanamycin selection, DiMSum; sequences stand for … in CUCUCU…GGAGGGAAAAGUUAUCAGGCAUGCACCUGGUAGCUAGUCUUUAAACCAAUAGAUUGCAUCGGUUUAAAAGGCAAGACCGUCAAAUUGCGGGAAAGGGGUCAACAGCCGUUCAGUACCAAGUCUCAGGGGAAACUUUGAGAUGGCCUUGCAAAGGGUAUGGUAAUAAGCUGACGGACAUGGUCCUAACCACGCAGCCAAGUCCUAAGUCAACAGAUCUUCUGUUGAUAUGGAUGCAGUUCACAGACUAAAUGUCGGUCGGGGAAGAUGUAUUCUUCUCAUAAGAUAUAGUCGGACCUCUCCUUAAUGGGAGCUAGCGGAUGAAGUGAUGCAACACUGGAGCCGCUGGGAACUAAUUUGUAUGCGAAAGUAUAUUGAUUAGUUUUGGAGUACUCGUGGUCG
# How it was run: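 Library with all eight P1ex-region intron nucleotides randomised, intron inside the knt kanamycin-resistance gene on pET-22b(+), in E. coli BL21(DE3). Cells grew overnight at 37°C or 30°C on LB agar with or without 25 μg/mL kanamycin (plus 100 μg/mL carbenicillin, 50 μM IPTG, 0.2% rhamnose), in six replicate transformations. Pooled colonies were amplicon-sequenced on Illumina HiSeq 2500. DiMSum fitness is the error-weighted combination of wild-type-normalised replicate fold changes, kanamycin versus none.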
Sequence,self-splicing fitness (ln) (30 °C),self-splicing fitness (ln) (37 °C)
GUUGAGCAAUAUUACGACUC,0.144 ± 0.2,-0.535 ± 0.19
GUUGAGCAAUAUUACGAUUA,-1.94 ± 0.21,-1.23 ± 0.22
GUUGAGCAAUAUUACGCAUU,-2.68 ± 0.2,-2.45 ± 0.33
GUUGAGCAAUAUUACGCCUG,–,-2.05 ± 0.35
GUUGAGCAAUAUUACGCGCA,-1.02 ± 0.2,-0.636 ± 0.24
GUUGAGCAAUAUUACGCGUG,-3.36 ± 0.15,-2.66 ± 0.21
GUUGAGCAAUAUUACGCUCC,-1.81 ± 0.48,–
GUUGAGCAAUAUUACGCUGC,–,-0.666 ± 0.3
GUUGAGCAAUAUUACGCUUA,-2.55 ± 0.21,-0.787 ± 0.17
GUUGAGCAAUAUUACGGAGA,-2.47 ± 0.45,-1.8 ± 0.35
GUUGAGCAAUAUUACGGAGU,-3.52 ± 0.29,-2.7 ± 0.29
GUUGAGCAAUAUUACGGAUG,-3.56 ± 0.42,-1.75 ± 0.36
GUUGAGCAAUAUUACGGGCC,-3.53 ± 0.5,-1.82 ± 0.39
GUUGAGCAAUAUUACGGGGU,-3.56 ± 0.25,-2.42 ± 0.22
GUUGAGCAAUAUUACGGUCG,–,-1.73 ± 0.34
GUUGAGCAAUAUUACGUAAC,-2.16 ± 0.42,-2.88 ± 0.3
GUUGAGCAAUAUUACGUACA,–,-2.37 ± 0.49
GUUGAGCAAUAUUACGUGGU,-3.25 ± 0.28,–
GUUGAGCAAUAUUACGUUAA,-2.83 ± 0.38,-2.34 ± 0.25
GUUGAGCAAUAUUACGUUGG,-4.19 ± 0.28,-2.01 ± 0.31
GUUGAGCAAUAUUACGUUUU,-2.91 ± 0.22,-2.88 ± 0.3
GUUUAGCAAUAUUACGAAGC,–,-1.3 ± 0.31

Sequence,self-splicing fitness (ln) (30 °C),self-splicing fitness (ln) (37 °C)
GUUUAGCAAUAUUACGAAUU,-2.25 ± 0.38,-0.545 ± 0.31
GUUUAGCAAUAUUACGACUC,0.0633 ± 0.12,0.248 ± 0.15
GUUUAGCAAUAUUACGAGGU,-3.03 ± 0.2,-2.03 ± 0.2
GUUUAGCAAUAUUACGCAAG,-2.45 ± 0.18,-0.942 ± 0.17
GUUUAGCAAUAUUACGCACC,-1.95 ± 0.19,-0.522 ± 0.26
GUUUAGCAAUAUUACGCGGG,-2.42 ± 0.19,-1.89 ± 0.19
GUUUAGCAAUAUUACGCUAU,–,-1.56 ± 0.29
GUUUAGCAAUAUUACGGACC,-2.41 ± 0.35,–
GUUUAGCAAUAUUACGGAGA,–,-2.24 ± 0.46
GUUUAGCAAUAUUACGGAGC,–,-2.99 ± 0.44
GUUUAGCAAUAUUACGGCCC,-1.66 ± 0.29,–
GUUUAGCAAUAUUACGGUAG,-3.53 ± 0.29,-1.72 ± 0.19
GUUUAGCAAUAUUACGGUCG,-1.35 ± 0.076,-0.636 ± 0.099
GUUUAGCAAUAUUACGUGAC,–,-0.596 ± 0.41
GUUUAGCAAUAUUACGUGGA,-2.48 ± 0.21,-2.89 ± 0.29
GUUUAGCAAUAUUACGUUGA,-3.52 ± 0.43,-2 ± 0.26
UAAAAGCAAUAUUACGAACG,0.282 ± 0.1,0.847 ± 0.12
UAAAAGCAAUAUUACGACAA,-0.243 ± 0.1,0.272 ± 0.11
UAAAAGCAAUAUUACGACUA,0.337 ± 0.089,0.733 ± 0.12
UAAAAGCAAUAUUACGAGGG,-3.83 ± 0.33,-2.47 ± 0.3
UAAAAGCAAUAUUACGAGUC,-3.45 ± 0.27,-3.74 ± 0.39
